Consider 17 molecules from US20250304640A1 (ORIKINE BIO SL, published 2025).

Assay [1] concerns the target CSF1 receptor (CSF1R) (UniProt P07333). Nature of the assay: cell-based or functional assay.
In assay [2] the target is T1, IL10RA (UniProt Q13651 22-578, limits assumed).
T1 sequence (looked up): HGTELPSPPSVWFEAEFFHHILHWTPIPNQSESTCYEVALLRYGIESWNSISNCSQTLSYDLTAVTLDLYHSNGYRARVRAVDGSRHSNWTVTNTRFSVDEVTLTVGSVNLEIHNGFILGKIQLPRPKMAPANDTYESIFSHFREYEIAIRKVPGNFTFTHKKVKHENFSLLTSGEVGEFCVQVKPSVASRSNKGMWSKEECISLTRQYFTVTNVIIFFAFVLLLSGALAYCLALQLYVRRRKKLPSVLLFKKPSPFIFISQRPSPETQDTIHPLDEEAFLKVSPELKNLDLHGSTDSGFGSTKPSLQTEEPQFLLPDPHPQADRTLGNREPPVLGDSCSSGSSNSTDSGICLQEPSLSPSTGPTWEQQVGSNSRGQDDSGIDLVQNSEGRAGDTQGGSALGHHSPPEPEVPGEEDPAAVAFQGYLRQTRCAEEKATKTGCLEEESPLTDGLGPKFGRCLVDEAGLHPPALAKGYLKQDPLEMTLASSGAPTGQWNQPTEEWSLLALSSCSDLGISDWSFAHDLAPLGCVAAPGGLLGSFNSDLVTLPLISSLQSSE
In words: cell-based or functional assay.

Chain of CSF1 receptor (CSF1R) (P07333 20-972 limits assumed): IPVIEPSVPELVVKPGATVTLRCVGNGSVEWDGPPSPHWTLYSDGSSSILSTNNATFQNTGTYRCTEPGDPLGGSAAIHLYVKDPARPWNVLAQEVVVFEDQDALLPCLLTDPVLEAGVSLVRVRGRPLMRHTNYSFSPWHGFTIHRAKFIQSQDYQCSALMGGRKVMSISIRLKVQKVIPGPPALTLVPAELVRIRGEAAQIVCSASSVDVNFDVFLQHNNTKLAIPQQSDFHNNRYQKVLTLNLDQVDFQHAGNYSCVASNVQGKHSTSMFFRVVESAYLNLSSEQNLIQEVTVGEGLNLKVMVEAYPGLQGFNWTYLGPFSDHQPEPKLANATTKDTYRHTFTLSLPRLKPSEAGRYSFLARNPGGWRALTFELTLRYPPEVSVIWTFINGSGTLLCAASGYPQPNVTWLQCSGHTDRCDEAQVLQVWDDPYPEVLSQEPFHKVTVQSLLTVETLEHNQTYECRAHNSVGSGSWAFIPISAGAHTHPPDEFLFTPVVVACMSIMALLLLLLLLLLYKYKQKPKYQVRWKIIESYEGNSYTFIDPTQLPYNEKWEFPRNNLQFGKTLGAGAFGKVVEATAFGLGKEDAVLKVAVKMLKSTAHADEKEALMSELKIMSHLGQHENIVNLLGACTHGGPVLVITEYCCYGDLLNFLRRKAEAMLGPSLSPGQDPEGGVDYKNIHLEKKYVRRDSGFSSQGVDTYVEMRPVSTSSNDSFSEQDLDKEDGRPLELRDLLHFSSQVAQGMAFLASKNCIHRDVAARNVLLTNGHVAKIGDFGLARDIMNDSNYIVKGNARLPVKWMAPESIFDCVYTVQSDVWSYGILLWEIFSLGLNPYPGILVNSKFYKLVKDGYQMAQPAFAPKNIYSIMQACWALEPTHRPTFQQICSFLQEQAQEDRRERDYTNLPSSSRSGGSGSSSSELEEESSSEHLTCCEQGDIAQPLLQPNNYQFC

B1: CSF1 (wild-type human CSF1) (ligand)
chain: EEVSEYCSHMIGSGHLQSLQRLIDSQMETSCQITFEFVDQEQLKDPVCYLKKAFLLVQDIMEDTMRFRDNTPNAIAIVQLQELSLRLKSCFTKDYEEHDKACVRTFYETPLQLLEKVKNVFNETKNLLDKDWNIFSKNCNNSFAECSSQD
As to B1, in assay [1], the CSF1 EC-50, HEK293 CSF1R/SRE reporter came out at 7.34e-10; the EC50, HEK293 CSF1R/SRE reporter, biological replica 1 worked out at 1.88e-09; the EC50, HEK293 CSF1R/SRE reporter, biological replica 2 amounted to 5.58e-09; the EC-50, HEK293 CSF1R/SRE reporter, biological replica 1 turned out to be 4.52e-10. Further, in assay [1], the EC-50, HEK293 CSF1R/SRE reporter, biological replica 2 was found to be 3.37e-10; the Max activation value, HEK293 CSF1R/SRE reporter, biological replica 1 was determined as 8.49; the Max activation value, HEK293 CSF1R/SRE reporter, biological replica 2 came to 1.14.

B2: CSF1 Q81F (ligand)
chain: EEVSEYCSHMIGSGHLQSLQRLIDSQMETSCQITFEFVDQEQLKDPVCYLKKAFLLVQDIMEDTMRFRDNTPNAIAIVQLFELSLRLKSCFTKDYEEHDKACVRTFYETPLQLLEKVKNVFNETKNLLDKDWNIFSKNCNNSFAECSSQD
B2: in assay [1], the EC50, HEK293 CSF1R/SRE reporter, biological replica 1 is 1.08e-08 and the EC50, HEK293 CSF1R/SRE reporter, biological replica 2 is 6.77e-08.

B3: CSF1 Q17R (ligand)
chain: EEVSEYCSHMIGSGHLRSLQRLIDSQMETSCQITFEFVDQEQLKDPVCYLKKAFLLVQDIMEDTMRFRDNTPNAIAIVQLQELSLRLKSCFTKDYEEHDKACVRTFYETPLQLLEKVKNVFNETKNLLDKDWNIFSKNCNNSFAECSSQD
In assay [1], B3 registered an EC50, HEK293 CSF1R/SRE reporter, biological replica 1 of 2.7e-09 and an EC50, HEK293 CSF1R/SRE reporter, biological replica 2 of 7.94e-09.

B4: CSF1 H9F (ligand)
chain: EEVSEYCSFMIGSGHLQSLQRLIDSQMETSCQITFEFVDQEQLKDPVCYLKKAFLLVQDIMEDTMRFRDNTPNAIAIVQLQELSLRLKSCFTKDYEEHDKACVRTFYETPLQLLEKVKNVFNETKNLLDKDWNIFSKNCNNSFAECSSQD
With B4, in assay [1], the EC50, HEK293 CSF1R/SRE reporter, biological replica 1 was 2.66e-09 and the EC50, HEK293 CSF1R/SRE reporter, biological replica 2 came to 1.18e-08.

B5: CSF1 S18Q (ligand)
chain: EEVSEYCSHMIGSGHLQQLQRLIDSQMETSCQITFEFVDQEQLKDPVCYLKKAFLLVQDIMEDTMRFRDNTPNAIAIVQLQELSLRLKSCFTKDYEEHDKACVRTFYETPLQLLEKVKNVFNETKNLLDKDWNIFSKNCNNSFAECSSQD
Turning to B5, in assay [1], the EC50, HEK293 CSF1R/SRE reporter, biological replica 1 was determined as 2.51e-09 and the EC50, HEK293 CSF1R/SRE reporter, biological replica 2 was found to be 1.99e-08.

B6: CSF1 V78W (ligand)
chain: EEVSEYCSHMIGSGHLQSLQRLIDSQMETSCQITFEFVDQEQLKDPVCYLKKAFLLVQDIMEDTMRFRDNTPNAIAIWQLQELSLRLKSCFTKDYEEHDKACVRTFYETPLQLLEKVKNVFNETKNLLDKDWNIFSKNCNNSFAECSSQD
In assay [1], B6 came in with an EC50, HEK293 CSF1R/SRE reporter, biological replica 1 of 6.23e-09 and an EC50, HEK293 CSF1R/SRE reporter, biological replica 2 of 2.1e-08.

B7: CSF1 Q79L (ligand)
chain: EEVSEYCSHMIGSGHLQSLQRLIDSQMETSCQITFEFVDQEQLKDPVCYLKKAFLLVQDIMEDTMRFRDNTPNAIAIVLLQELSLRLKSCFTKDYEEHDKACVRTFYETPLQLLEKVKNVFNETKNLLDKDWNIFSKNCNNSFAECSSQD
With B7, in assay [1], the EC50, HEK293 CSF1R/SRE reporter, biological replica 1 was 6.76e-09 and the EC50, HEK293 CSF1R/SRE reporter, biological replica 2 was determined as 1.28e-08.

B8: CSF1 V120I (ligand)
chain: EEVSEYCSHMIGSGHLQSLQRLIDSQMETSCQITFEFVDQEQLKDPVCYLKKAFLLVQDIMEDTMRFRDNTPNAIAIVQLQELSLRLKSCFTKDYEEHDKACVRTFYETPLQLLEKVKNIFNETKNLLDKDWNIFSKNCNNSFAECSSQD
With B8, in assay [1], the EC-50, HEK293 CSF1R/SRE reporter, biological replica 1 is 8.8e-10; the EC-50, HEK293 CSF1R/SRE reporter, biological replica 2 was found to be 4.43e-10; the Max activation value, HEK293 CSF1R/SRE reporter, biological replica 1 was found to be 8.86; the Max activation value, HEK293 CSF1R/SRE reporter, biological replica 2 amounted to 1.37.

B9: CSF1 E82K (ligand)
chain: EEVSEYCSHMIGSGHLQSLQRLIDSQMETSCQITFEFVDQEQLKDPVCYLKKAFLLVQDIMEDTMRFRDNTPNAIAIVQLQKLSLRLKSCFTKDYEEHDKACVRTFYETPLQLLEKVKNVFNETKNLLDKDWNIFSKNCNNSFAECSSQD
On to B9, for which, in assay [1], the EC50, HEK293 CSF1R/SRE reporter, biological replica 1 is 1.27e-08 and the EC50, HEK293 CSF1R/SRE reporter, biological replica 2 was 2.49e-08.

B10: CSF1 V117I (ligand)
chain: EEVSEYCSHMIGSGHLQSLQRLIDSQMETSCQITFEFVDQEQLKDPVCYLKKAFLLVQDIMEDTMRFRDNTPNAIAIVQLQELSLRLKSCFTKDYEEHDKACVRTFYETPLQLLEKIKNVFNETKNLLDKDWNIFSKNCNNSFAECSSQD
In assay [1], B10 returned an EC-50, HEK293 CSF1R/SRE reporter, biological replica 1 of 1e-09; an EC-50, HEK293 CSF1R/SRE reporter, biological replica 2 of 4.37e-10; a Max activation value, HEK293 CSF1R/SRE reporter, biological replica 1 of 7.64; a Max activation value, HEK293 CSF1R/SRE reporter, biological replica 2 of 1.28.

B11: CSF1 A76I, V117L (ligand)
chain: EEVSEYCSHMIGSGHLQSLQRLIDSQMETSCQITFEFVDQEQLKDPVCYLKKAFLLVQDIMEDTMRFRDNTPNAIIIVQLQELSLRLKSCFTKDYEEHDKACVRTFYETPLQLLEKLKNVFNETKNLLDKDWNIFSKNCNNSFAECSSQD
In the case of B11, in assay [1], the EC-50, HEK293 CSF1R/SRE reporter, biological replica 1 stood at 1.18e-09; the EC-50, HEK293 CSF1R/SRE reporter, biological replica 2 was found to be 5.97e-10; the Max activation value, HEK293 CSF1R/SRE reporter, biological replica 1 was found to be 8.55; the Max activation value, HEK293 CSF1R/SRE reporter, biological replica 2 turned out to be 1.14.

B12: ORK10-003-HiBit R24A (ligand)
chain: MTQSENSCTHFPGNLPNMLRDLRDAFSRVKTFFQMKDQLDNLLLKESLLEDFKGYLGCQALSEMIQFYLEEVMPQAENQDPDIKAHVNSLGENLKTLRLRLRRCHRFLPCENKSKAVEQVKNAFNKLQEKGIYKAMSEFDIFINYIEAYLYKTITPEFANMLADLRDAFSRVKTFFQMKDQLDNLLLKESLLEDFKGYLGCQALSEMIQFYLEEVMPQAENQDPDIKAHVNSLGENLKTLRLRLRRCHRFLPCENKSKAVEQVKNAFNKLQEKGIYKAMSEFDIFINYIEAYMTMGGVSGWRLFKKIS
For B12, the “EC-50, HEK-Blue IL-10 reporter cells” value in assay [2] turned out to be 1.51e-10.

B13: ORK10-003-HiBit D44A (ligand)
chain: MTQSENSCTHFPGNLPNMLRDLRDAFSRVKTFFQMKDQLDNLLLKESLLEDFKGYLGCQALSEMIQFYLEEVMPQAENQDPDIKAHVNSLGENLKTLRLRLRRCHRFLPCENKSKAVEQVKNAFNKLQEKGIYKAMSEFDIFINYIEAYLYKTITPEFANMLRDLRDAFSRVKTFFQMKDQLANLLLKESLLEDFKGYLGCQALSEMIQFYLEEVMPQAENQDPDIKAHVNSLGENLKTLRLRLRRCHRFLPCENKSKAVEQVKNAFNKLQEKGIYKAMSEFDIFINYIEAYMTMGGVSGWRLFKKIS
Turning to B13, the “EC-50, HEK-Blue IL-10 reporter cells” value in assay [2] was 2.01e-09.

B14: ORK10-003-HiBit K34A (ligand)
chain: MTQSENSCTHFPGNLPNMLRDLRDAFSRVKTFFQMKDQLDNLLLKESLLEDFKGYLGCQALSEMIQFYLEEVMPQAENQDPDIKAHVNSLGENLKTLRLRLRRCHRFLPCENKSKAVEQVKNAFNKLQEKGIYKAMSEFDIFINYIEAYLYKTITPEFANMLRDLRDAFSRVATFFQMKDQLDNLLLKESLLEDFKGYLGCQALSEMIQFYLEEVMPQAENQDPDIKAHVNSLGENLKTLRLRLRRCHRFLPCENKSKAVEQVKNAFNKLQEKGIYKAMSEFDIFINYIEAYMTMGGVSGWRLFKKIS
Take B14: the “EC-50, HEK-Blue IL-10 reporter cells” value in assay [2] was 9.22e-10.

B15: ORK10-003-HiBit E50A (ligand)
chain: MTQSENSCTHFPGNLPNMLRDLRDAFSRVKTFFQMKDQLDNLLLKESLLEDFKGYLGCQALSEMIQFYLEEVMPQAENQDPDIKAHVNSLGENLKTLRLRLRRCHRFLPCENKSKAVEQVKNAFNKLQEKGIYKAMSEFDIFINYIEAYLYKTITPEFANMLRDLRDAFSRVKTFFQMKDQLDNLLLKASLLEDFKGYLGCQALSEMIQFYLEEVMPQAENQDPDIKAHVNSLGENLKTLRLRLRRCHRFLPCENKSKAVEQVKNAFNKLQEKGIYKAMSEFDIFINYIEAYMTMGGVSGWRLFKKIS
With B15, in assay [2], the “EC-50, HEK-Blue IL-10 reporter cells” value came out at 5.43e-11.

B16: ORK10-003-HiBit D44N (ligand)
chain: MTQSENSCTHFPGNLPNMLRDLRDAFSRVKTFFQMKDQLDNLLLKESLLEDFKGYLGCQALSEMIQFYLEEVMPQAENQDPDIKAHVNSLGENLKTLRLRLRRCHRFLPCENKSKAVEQVKNAFNKLQEKGIYKAMSEFDIFINYIEAYLYKTITPEFANMLRDLRDAFSRVKTFFQMKDQLNNLLLKESLLEDFKGYLGCQALSEMIQFYLEEVMPQAENQDPDIKAHVNSLGENLKTLRLRLRRCHRFLPCENKSKAVEQVKNAFNKLQEKGIYKAMSEFDIFINYIEAYMTMGGVSGWRLFKKIS
In the case of B16, in assay [2], the “EC-50, HEK-Blue IL-10 reporter cells” value was 4.37e-10.

B17: CSF1 (1-190) HiBiT (ligand)
chain: EEVSEYCSHMIGSGHLQSLQRLIDSQMETSCQITFEFVDQEQLKDPVCYLKKAFLLVQDIMEDTMRFRDNTPNAIAIVQLQELSLRLKSCFTKDYEEHDKACVRTFYETPLQLLEKVKNVFNETKNLLDKDWNIFSKNCNNSFAECSSQDGGVSGWRLFKKIS
In turn, B17 registered an EC-50, HEK293 CSF1R/SRE reporter in assay [1] of 1.45e-09.
